From patent US20160208226A1, “Transaminase Biocatalysts” (COMMONWEALTH SCIENTIFIC AND INDUSTRIAL RESEARCH ORGANISATION, priority 2013, published 2016)

B1: p7N15: de novo peptide sequence based on p7, produced by ancestral reconstruction; SEQ ID NO:8 (protein)
chain: MTDLDQLFEMDRAHFMHPSTHAHDHASGALPGRIITGGKGIRIQDHEGREYIDAFAGLYCVNIGYGRTEVADAIYEQAKELAYYHTYVGHSTEAIIELSSRIIRDWAPAGMKKVYYGMSGSDANETQIKLVWYYNNVLGRPQKKKIISRQRGYHGSGIMTGSLTGLPSFHQHFDLPIERIKHTVCPHWYKAPAGMSEAQFVRYCADELEKLILAEGPDTVAAFIGEPVMGTGGIIPPPQGYWEAIQAVLNKYDILLIADEVVCGFGRLGSKMGSQHYGMKPDLITVAKGLTSAYAPLSGVIVGEKVWDVIEKGSQEHGPMGHGWTYSGHPICAAAALANLDILERENLTGNAADVGAYLQQRLRETFGGHPLVGEVRGVGMLAALEFMADKDARTPFDPALKVGPKVSAACLEDGMIARAMPHGDILGFAPPLVITRAEVDEIVGIAKQAVDEVADEVL
modifications: Molecule produced by ancestral reconstruction
B2: p7N17: de novo peptide sequence based on p7, produced by ancestral reconstruction; SEQ ID NO:10 (protein)
chain: MTSLDQLFEEDRAHFMHPSTHAHDHASGALPGKIVTGGKGIRIEDHQGREYIDAFAGLYCVNIGYGRTEVADAIYEQAKQLAYYHTYVGHSTDAIIELSSRIIRDWAPAGMKKVYYGMSGSDANETQIKIVWYYNNVLGRPNKKKIISRERGYHGSGIVTGSLTGLPSFHQHFDLPIDRVKHTVCPHWYKAPAGMSEAQFVAYCVEELEKLIAREGADTIAAFIAEPVMGTGGIIAPPQGYWEAIQAVLRKHDILLISDEVVCGFGRLGSKMGAQHYGIKPDLITVAKGLTSAYAPLSGVIVGEKVWDVIEKGSQEHGPMGHGWTYSGHPICAAAALANLDILERENLTGNAADVGAYLQQRLHEAFGAHPLVGEVRGVGMLAALEFMADKDARTPFDPALKVGPKVSAAALEDGVIARAMPHGDILGFAPPLVTTRAEVDEIVGIVKQAVDEVADEVL
modifications: Molecule produced by ancestral reconstruction
B3: p7N16: de novo peptide sequence based on p7, produced by ancestral reconstruction; SEQ ID NO:9 (protein)
chain: MQSLDQLFEMDRAHFMHPSTHAHDHASGALPGRIITGGKGIRIEDHEGREYIDAFAGLYCVNIGYGRTEVADAIYEQAKQLAYYHTYVGHSTDAIIELSSRIIRDWAPAGMKKVYYGMSGSDANETQIKLVWYYNNVLGRPNKKKIISRERGYHGSGIVTGSLTGLPSFHQHFDLPIDRVKHTVCPHWYRAPAGMSEAQFVAYCVEELEKLIAREGADTIAAFIAEPVMGTGGIIPPPQGYWEAIQAVLRKHDILLIADEVVCGFGRLGSKMGSQHYGIKPDLITVAKGLTSAYAPLSGVIVGEKVWDVIEKGSQEHGPMGHGWTYSGHPICAAAALANLDILERENLTGNAADVGAYLQQRLHEAFGAHPLVGEVRGVGMLAALEFMADKDARTPFDPALKVGPKVSAAALEDGMIARAMPHGDILGFAPPLVTTRAEVDEIVGIAKQAVDEVADEVL
modifications: Molecule produced by ancestral reconstruction
B4: p7N48: de novo peptide sequence based on p7, produced by ancestral reconstruction; SEQ ID NO:12 (protein)
chain: MTDTDDLLEMDRAHFFHPSTHLRDHASGELPGRIITGGKGIRIQDSEGREYIDAFAGLYCVNVGYGRTEIADAIYEQAKELAYYHTYVGHSNEPIIELSERIIREWAPAGMSKVYYGMSGSDANETQIKLVWYYNNVLGRPQKKKIISRQRGYHGSGIMTGSLTGLPAFHNHFDLPLEPIRHTTCPHYYRAPAGMSEAEFSRHCADELEKMILAEGPDTVAAFIGEPVMGTGGIVPPPEGYWEAIQAVLNKYDILLIADEVVCGFGRTGSMFGSHHYGMKPDLITVAKGLTSAYAPLSGVIVGEKVWKVLEQGSDQYGPIGHGWTYSGHPICAAAALANLDIIERENLTGNAADTGAYFQQRMRETFGDHPLVGEVRGVGLMAALEFVADKDKRTRFDPSLKVGPRVSAACLEDGMIARAMPHGDILGFAPPLVITRAEVDEIVDIAKQAVDAVADELV
modifications: Molecule produced by ancestral reconstruction
B5: p7N43: de novo peptide sequence based on p7, produced by ancestral reconstruction; SEQ ID NO:11 (protein)
chain: MTSLEQLLEMDRAHFMHPSTHAYDHASGALPGRIITGGKGIRIEDHEGREYIDAFAGLYCVNIGYGREEVADAIYEQAKQLAYYHTYVGHSNDPVIELSSRIIEDWAPAGMKKVFYGMSGSDANETQIKLVWYYNNVLGRPNKKKIIARERSYHGSGIVTGSLTGLPSFHQHFDLPIDRVKHTVCPHWYNAPPGMSEAQFVAYCVEELEKLIAREGADTIAAFIAEPVMGTGGIVPPPQGYWEAIQAVLRKHDILLIADEVVCGFGRLGSKTGSEHYGIKPDLITVAKGLTSAYAPLSAVIVSEKVWDVIEKGSREHGVMGHGWTYSGHPVCAAAALANLDILERENLTGNAADVGAYLQQRLHEAFGAHPLVGEVRGVGMLAALEFMADKGARTPFDPALKVSQKVAAAALEDGLIVRALPHGDILGFAPPLVTTRAEVDEIVAIAKEAFDEVADAVL
modifications: Molecule produced by ancestral reconstruction
B6: GabT: Gamma-aminobutyrate Transaminase; E.C. 2.6.1.19, from E. coli strain BL21-DE3, N-terminal His6-tag (protein, listed as Escherichia coli)
chain: MNSNKELMQRRSQAIPRGVGQIHPIFADRAENCRVWDVEGREYLDFAGGIAVLNTGHLHPKVVAAVEAQLKKLSHTCFQVLAYEPYLELCEIMNQKVPGDFAKKTLLVTTGSEAVENAVKIARAATKRSGTIAFSGAYHGRTHYTLALTGKVNPYSAGMGLMPGHVYRALYPCPLHGISEDDAIASIHRIFKNDAAPEDIAAIVIEPVQGEGGFYASSPAFMQRLRALCDEHGIMLIADEVQSGAGRTGTLFAMEQMGVAPDLTTFAKSIAGGFPLAGVTGRAEVMDAVAPGGLGGTYAGNPIACVAALEVLKVFEQENLLQKANDLGQKLKDGLLAIAEKHPEIGDVRGLGAMIAIELFEDGDHNKPDAKLTAEIVARARDKGLILLSCGPYYNVLRILVPLTIEDAQIRQGLEIISQCFDEAKQ
modifications: N-terminal His6-tag
notes: Gamma-aminobutyrate Transaminase; E.C; 2.6.1.19, from E. coli strain BL21-DE3, N-terminal His6-tag

Experiments:
[1] = Solubility of the substrates in the alanine dehydrogenase-coupled kinetic assay; assay type: physicochemical; details: assay buffer; kinetic parameters cannot be determined
Text: (§1) The alanine dehydrogenase-coupled assay has been used to determine some early kinetic parameters for p6 and p7. Reactions with C3 to C8 for p6 and C4 to CS have been fully characterised and show no clear trend in terms of reaction rate vs. carbon chain length. For C11 and C12, the solubility of the substrates is extremely low, and as such, kinetic parameters cannot be determined.
as §1, with “all the aforementioned enzymes.” for “p6 and p7.”, “C8 for p7” for “CS”

[2] = Coupled dehydrogenase assays for transaminase activity of the Pseudomonas sp. proteins and ancestral reconstructions; assay type: biochemical; details: E. coli expressed, purified proteins
Experimental: Activity for each protein was assessed using coupled dehydrogenase assays as described previously. A typical assay comprised:
Substrate (6.25 mM final concentration in potassium phosphate buffer)
Co-substrate (pyruvate (0.5 mM final concentration) or α-KG (0.25 mM final concentration)
NAD (1.25 mM final concentration)
Dehydrogenase (1 μL from ADH-≧35 units/mL stock solution or GDH≧35 units/mg protein stock)
Transaminase (final concentration dependent)
Potassium phosphate buffer (100 mM)
UV absorbance at 340 nm was recorded at 28° C. over a pH range of 7.5-10 with a range of substrates.
Proteins encoded by p7N6, p7N15, p7N16, p7N17, p7N43 and p7N48 were expressed using an E. coli recombinant expression platform and subsequently purified.
Each of the proteins were assayed for substrate specificity. Substrates identified by assaying for each of the proteins are summarized below.

[3] = Coupled assay of GabT with glutamate dehydrogenase (NADH formation at 340 nm); assay type: biochemical; details: coupled GDH assay, NADH detected at 340 nm
Text: DNA encoding the GabT protein from E. coli strain BL21-DE3 was amplified from genomic DNA using specially designed primers. The PCR product was restricted using NdeI and BamHI restriction endonucleases (NEB) and ligated (T4 DNA ligase, NEB) into a modified pET expression vector that had also been restricted using the aforementioned enzymes, and contained ampicillin resistance for selectivity. The vector was transformed into electrocompetent E. coli strain BL21-DE3 and transformants plated onto LB agar plates containing ampicillin (100 μg/mL) for selectivity. Transformant DNA was isolated and sent for sequencing to confirm the identity of the vector construct. […] The protein was purified using a HiTrap Chelating HP 5 mL column (GE Healthcare) for nickel affinity chromatography on an FPLC (Fast Protein Liquid Chromatography. GE Healthcare), exploiting an N-terminal His6-tag on GabT. SDS-PAGE confirmed the protein size.
Protein activity was confirmed using a coupled assay that comprised GabT and a commercially available glutamate dehydrogenase (GDH; Sigma Aldrich). The assay works as illustrated below, with the dehydrogenase catalysing the oxidative deamination of glutamate—the co-product of the GabT transamination reaction.
Therefore, although a viable biocatalyst for these substrates had been identified, it could not produce the desired longer chain (>C9) products. […]

Molecule	activity of ancestral reconstruction proteins in the coupled assays [2]	other results
NCCCCCCCCCCC(=O)O [C11, 11-aminoundecanoic acid]	–	solubility of the substrates [1]: extremely low
NCCCCCCCCCCCC(=O)O [C12, 12-aminododecanoic acid]	–	solubility of the substrates [1]: extremely low
B1	activity in accordance with p7	–
B2	activity in accordance with p7	–
B3	activity in accordance with p7	–
B4	activity in accordance with p7	–
B5	activity in accordance with p7	–
B6	–	substrate scope of GabT [3]: C4-C8 omega-amino acids
